Target: T1, Src-streptavidin-PP polypeptide
T1 construct: also called Src-strepta-PP; Src-Strepta-PP
Assay: co-expression in HEK293T cells; EV loading, Western blot

B1: SBP-eGFP polypeptide (other)
chain: not shown
binding result: binds

— US20250312464A1 (CILOA, published 2025)
